{"source": "patent US20110113865A1", "about": "“USING CARDIAC TROPONIN FOR MONITORING ANTI-ANGIOGENESIS THERAPY” (priority 2008, published 2011)", "molecules": {"B1": {"name": "NT-proBNP: N-terminal pro peptide of proBNP, 76 amino acids (protein, UniProt P16860 27-102, looked up)", "NT-proBNP": "HPLGSPGSASDLETSGLQEQRNHLQGKLSELQVEQTSLEPLQESPRPTGVWKSREVATEGIRGHRKMVLYTLRAPR", "modifications": "NT-proBNP", "notes": "N-terminal pro peptide of proBNP, 76 amino acids"}}, "key": {"[1]": {"settings": "Smith 2000; cited from earlier work"}, "[2]": {"settings": "48 hours at room temperature or at 4° Celsius; cited from earlier work"}, "acute coronary syndromes": {"test_system": "acute coronary syndromes", "settings": "treated patients; Annals of Oncology 2007; cited from earlier work"}, "[3]": {"test_system": "troponin T and/or NT-proBNP", "assay": "Levels of troponin T and/or NT-proBNP before and during therapy in 27 patients", "assay_type": "in vivo, human", "from_the_text": "Examples are shown herein below."}, "troponin T": {"test_system": "troponin T", "settings": "human, in vivo"}, "NT-proBNP": {"test_system": "NT-proBNP", "settings": "human, in vivo"}, "[4]": {"test_system": "metastatic colorectal cancer", "settings": "cited from earlier work"}, "cardiovascular system": {"test_system": "cardiovascular system", "settings": "human, in vivo", "protocol": "Three years later, advanced colorectal cancer is diagnosed necessitating a suitable cancer therapy. The left ventricular ejection fraction (LVEF) is determined by echocardiography (40%) indicating a minor systolic dysfunction. Moreover, the amounts of a troponin T (12 pg/ml) and NT-proBNP (510 pg/ml) are determined in a sample of the patient. The patient is subjected to a cardiac stress test showing that a region of the posterior myocardial wall has a dysfunctional contractility (reversible perfusion defects). Coronary angiography is carried out indicating 80% stenosis of the artery that supplies the region of dysfunctional contractility with blood. Two weeks after successful revascularization of the affected myocardial regions, troponin T (6 pg/ml) and NT-proBNP (180 pg/ml) are determined again. A therapy with VEGF-inhibitors is started; troponin T and NT-proBNP are measured monthly. During the therapy with VEGF-inhibitors the levels of these two biomarkers remain stable. Also, the therapy is effective indicated by a reduced tumor size as well as by reduced CEA levels (carcinoembryonic antigen). […] Examples are shown herein below."}}}
{"molecule": "BNP: Brain Natriuretic Peptide, active hormone, 32 amino acids", "values": [{"measurement": "in-vivo half-life", "setting": "[1]", "value": 0.333, "unit": "h"}, {"measurement": "concentration loss on storage", "setting": "[2]", "value": "at least 20%"}]}
{"molecule": "CNC(=O)c1cc(Oc2ccc(NC(=O)Nc3ccc(Cl)c(C(F)(F)F)c3)cc2)ccn1", "note": "[sorafenib]", "values": [{"measurement": "patients with induced acute coronary syndromes", "setting": "acute coronary syndromes", "value": 2.9, "unit": "%"}]}
{"molecule": "Bevacizumab: monoclonal antibody against the vascular endothelial growth factor (VEGF)", "values": [{"measurement": "patients in whom the levels of the markers remained unchanged (no significant increase)", "setting": "[3]; 27 patients, serum, before vs during therapy", "value": "more than 80%"}, {"measurement": "change of the measured markers (Troponin T and NT-proBNP)", "setting": "[3]; patient 4208, day 13 vs day 57 after therapy start", "value": "Significant increases"}, {"measurement": "change of troponin T during treatment", "setting": "troponin T", "value": "further increase of troponin T"}, {"measurement": "NT-proBNP level", "setting": "NT-proBNP", "value": 1916, "unit": "pg/mL"}, {"measurement": "survival", "setting": "[4]", "value": "significantly improves survival"}, {"measurement": "adverse side effects on the cardiovascular system", "setting": "cardiovascular system", "value": "no adverse side effects on the cardiovascular system"}]}
{"molecule": "B1", "values": [{"measurement": "in-vivo half-life", "setting": "[1]", "value": 2, "unit": "h"}]}
